# In patent US20130045539:
# System: hsRAG1 engineered meganuclease (I-CreI-derived) (artificial (I-CreI backbone, Chlamydomonas reinhardtii?))
# Assay: cell_activity
# Conditions: HEK-293, meganuclease-driven targeted integration at RAG1; other lines 7-16%; indirect readout of cleavage
substance,measurement,value
human RAG1 locus meganuclease target site,activity (% targeted clones),44
